From paper PMC11472053, “Structural basis of DNA recognition by BEN domain proteins reveals a role for oligomerization in unmethylated DNA selection by BANP” (Nucleic Acids Research, 2024)

Experiments:
BANP BEN WT (human) = biological target: T1, BANP BEN WT (human) (UniProt Q8N9N5); assay: ITC; conditions: 5-methyl-C at positions 5 and 7 of each strand (fully methylated); ITC: 20 mM Tris pH 7.5, 200 mM NaCl, 2 mM beta-mercaptoethanol, 20 C; EMSA: 20 mM Tris pH 7.0, 200 mM NaCl, 2 mM DTT, 4 C, 1.2% agarose in TAE
T1 sequence: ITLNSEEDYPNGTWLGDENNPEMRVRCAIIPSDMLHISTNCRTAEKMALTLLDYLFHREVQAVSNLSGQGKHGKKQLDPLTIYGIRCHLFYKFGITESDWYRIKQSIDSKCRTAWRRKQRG

BANP CC-BEN (ΔDBD) = biological target: T2, BANP CC-BEN (ΔDBD) (human, UniProt Q8N9N5 1-360); assay: ITC; ITC: 20 mM Tris pH 7.5, 200 mM NaCl, 2 mM beta-mercaptoethanol, 20 C; EMSA: 20 mM Tris pH 7.0, 200 mM NaCl, 2 mM DTT, 4 C, 1.2% agarose in TAE; conditions: protein: recombinant; tags: His-SUMO or His-MBP, cleaved; blunt, self-complementary
T2 sequence: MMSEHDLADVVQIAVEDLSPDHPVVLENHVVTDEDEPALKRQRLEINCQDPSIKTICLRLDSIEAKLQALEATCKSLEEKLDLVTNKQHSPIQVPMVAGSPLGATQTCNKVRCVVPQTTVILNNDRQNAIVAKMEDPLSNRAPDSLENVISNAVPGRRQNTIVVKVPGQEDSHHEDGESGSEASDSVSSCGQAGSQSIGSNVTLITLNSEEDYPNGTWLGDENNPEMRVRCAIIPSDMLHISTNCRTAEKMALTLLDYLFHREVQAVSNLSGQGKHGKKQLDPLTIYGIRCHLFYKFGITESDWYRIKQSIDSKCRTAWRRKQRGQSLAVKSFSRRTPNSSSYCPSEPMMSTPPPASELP

BANP full-length WT = biological target: T3, BANP full-length WT (human, UniProt Q8N9N5 1-519); assay: as above; conditions: protein: recombinant; tags: His-SUMO or His-MBP, cleaved; chain copies: 4; blunt, self-complementary
T3 sequence: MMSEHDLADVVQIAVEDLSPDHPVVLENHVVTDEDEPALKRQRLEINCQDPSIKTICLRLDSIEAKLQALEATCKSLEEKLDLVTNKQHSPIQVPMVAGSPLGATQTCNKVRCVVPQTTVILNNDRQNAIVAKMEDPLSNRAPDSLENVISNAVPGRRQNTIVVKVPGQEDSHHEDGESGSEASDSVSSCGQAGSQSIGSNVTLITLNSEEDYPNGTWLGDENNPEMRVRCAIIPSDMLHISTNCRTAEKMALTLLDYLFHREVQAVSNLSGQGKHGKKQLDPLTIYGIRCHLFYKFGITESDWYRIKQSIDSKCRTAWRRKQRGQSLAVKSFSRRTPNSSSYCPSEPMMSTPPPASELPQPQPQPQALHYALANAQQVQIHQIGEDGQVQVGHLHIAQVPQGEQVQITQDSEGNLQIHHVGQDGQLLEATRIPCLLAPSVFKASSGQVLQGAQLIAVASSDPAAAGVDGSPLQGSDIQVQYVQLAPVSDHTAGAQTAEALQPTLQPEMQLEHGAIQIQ

BANP ΔCC = biological target: T4, BANP ΔCC (human, UniProt Q8N9N5 90-519); assay: as above; conditions: protein: recombinant; tags: His-SUMO or His-MBP, cleaved; blunt, self-complementary
T4 sequence: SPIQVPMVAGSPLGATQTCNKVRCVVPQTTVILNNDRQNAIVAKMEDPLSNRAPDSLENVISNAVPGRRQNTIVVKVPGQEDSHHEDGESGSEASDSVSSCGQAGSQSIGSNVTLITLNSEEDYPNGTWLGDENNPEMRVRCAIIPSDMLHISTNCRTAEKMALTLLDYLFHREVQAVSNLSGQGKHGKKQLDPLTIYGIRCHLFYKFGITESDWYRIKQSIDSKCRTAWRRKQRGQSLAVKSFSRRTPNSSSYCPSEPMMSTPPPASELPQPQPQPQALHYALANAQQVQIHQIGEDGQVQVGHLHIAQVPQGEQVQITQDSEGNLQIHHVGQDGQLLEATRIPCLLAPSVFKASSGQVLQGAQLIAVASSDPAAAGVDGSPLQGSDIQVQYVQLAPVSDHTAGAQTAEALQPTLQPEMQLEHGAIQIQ

BANP BEN-DBD = biological target: T5, BANP BEN-DBD (human, UniProt Q8N9N5 205-519); assay: as above; conditions: protein: recombinant; tags: His-SUMO or His-MBP, cleaved; blunt, self-complementary
T5 sequence: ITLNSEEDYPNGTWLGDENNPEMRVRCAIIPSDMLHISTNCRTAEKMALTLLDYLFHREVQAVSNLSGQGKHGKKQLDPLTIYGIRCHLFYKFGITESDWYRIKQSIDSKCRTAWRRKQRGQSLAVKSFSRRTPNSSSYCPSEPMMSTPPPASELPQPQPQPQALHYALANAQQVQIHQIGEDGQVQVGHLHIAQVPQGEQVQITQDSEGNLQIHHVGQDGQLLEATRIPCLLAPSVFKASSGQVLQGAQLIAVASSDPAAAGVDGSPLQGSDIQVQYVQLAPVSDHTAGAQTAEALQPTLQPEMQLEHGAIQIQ

NACC1 BEN WT [1] = biological target: T6, NACC1 BEN WT (human, UniProt Q96RE7 341-477); assay: crystal structure; 2.3 A; PDB assignment from column order; ITC: 20 mM Tris pH 7.5, 200 mM NaCl, 2 mM beta-mercaptoethanol, 20 C; EMSA: 20 mM Tris pH 7.0, 200 mM NaCl, 2 mM DTT, 4 C, 1.2% agarose in TAE; conditions: protein: recombinant; tags: His-SUMO or His-MBP, cleaved; 10 bp, 5' overhang 1 nt (T) each strand
T6 sequence: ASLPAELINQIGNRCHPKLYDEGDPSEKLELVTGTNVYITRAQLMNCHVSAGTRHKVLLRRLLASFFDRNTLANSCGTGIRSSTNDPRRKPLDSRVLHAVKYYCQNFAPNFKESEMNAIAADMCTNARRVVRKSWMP

BANP BEN WT [2] = biological target: T7, BANP BEN WT (human, UniProt Q8N9N5 205-325); assay: EMSA; ITC: 20 mM Tris pH 7.5, 200 mM NaCl, 2 mM beta-mercaptoethanol, 20 C; EMSA: 20 mM Tris pH 7.0, 200 mM NaCl, 2 mM DTT, 4 C, 1.2% agarose in TAE; conditions: protein: recombinant; tags: His-SUMO or His-MBP, cleaved; chain copies: 2; blunt
T7 sequence: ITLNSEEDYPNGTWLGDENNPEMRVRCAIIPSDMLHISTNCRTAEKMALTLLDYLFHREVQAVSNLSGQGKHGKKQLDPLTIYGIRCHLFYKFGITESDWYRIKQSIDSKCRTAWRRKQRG

NACC1 BEN WT [3] = biological target: T6, NACC1 BEN WT; assay: as above; conditions: protein: recombinant; tags: His-SUMO or His-MBP, cleaved; blunt
BANP BEN WT [4] = biological target: T7, BANP BEN WT; assay: crystal structure; 2.6 A; PDB assignment from column order; ITC: 20 mM Tris pH 7.5, 200 mM NaCl, 2 mM beta-mercaptoethanol, 20 C; EMSA: 20 mM Tris pH 7.0, 200 mM NaCl, 2 mM DTT, 4 C, 1.2% agarose in TAE; conditions: protein: recombinant; tags: His-SUMO or His-MBP, cleaved; chain copies: 2; 12 bp, 5' overhang 1 nt (C) each strand
[5] = biological target: the molecule itself; assay: cross-linking; purified full-length BANP in 20 mM HEPES pH 7.5, 200 mM NaCl, 2 mM DTT; 0.06% glutaraldehyde, on ice 10 min, quenched with Tris; then Superdex 200 10/300 GL and SDS-PAGE of the fractions

ATCTCGCGAGAT (double strand) [12-mCGmCG]
Kd (BANP BEN WT (human)): 5.7 µM

B1: 12-mCGmCG (dsDNA)
DNA 1: ATCTCGCGAGAT
DNA 2: ATCTCGCGAGAT
modifications: 5-methyl-C at positions 5 and 7 of each strand (fully methylated)
binding result (BANP CC-BEN (ΔDBD)): no binding
binding result (BANP full-length WT): no binding
binding result (BANP ΔCC): no binding
binding result (BANP BEN-DBD): no binding

B2: NACC1 crystal DNA (dsDNA)
DNA 1: TTTACATGTAA
DNA 2: TTTACATGTAA
binding result (NACC1 BEN WT [1]): binds

B3: 12-AT (dsDNA)
DNA 1: TTTTATATATAA
DNA 2: TTATATATAAAA
binding result (BANP BEN WT [2]): no binding
binding result (NACC1 BEN WT [3]): no binding

B4: BANP crystal DNA (dsDNA)
DNA 1: CATCTCGCGAGAT
DNA 2: CATCTCGCGAGAT
binding result (BANP BEN WT [4]): binds

B5: full-length BANP (natural protein, human, UniProt Q8N9N5 1-519, looked up)
chain: MMSEHDLADVVQIAVEDLSPDHPVVLENHVVTDEDEPALKRQRLEINCQDPSIKTICLRLDSIEAKLQALEATCKSLEEKLDLVTNKQHSPIQVPMVAGSPLGATQTCNKVRCVVPQTTVILNNDRQNAIVAKMEDPLSNRAPDSLENVISNAVPGRRQNTIVVKVPGQEDSHHEDGESGSEASDSVSSCGQAGSQSIGSNVTLITLNSEEDYPNGTWLGDENNPEMRVRCAIIPSDMLHISTNCRTAEKMALTLLDYLFHREVQAVSNLSGQGKHGKKQLDPLTIYGIRCHLFYKFGITESDWYRIKQSIDSKCRTAWRRKQRGQSLAVKSFSRRTPNSSSYCPSEPMMSTPPPASELPQPQPQPQALHYALANAQQVQIHQIGEDGQVQVGHLHIAQVPQGEQVQITQDSEGNLQIHHVGQDGQLLEATRIPCLLAPSVFKASSGQVLQGAQLIAVASSDPAAAGVDGSPLQGSDIQVQYVQLAPVSDHTAGAQTAEALQPTLQPEMQLEHGAIQIQ
notes: BANP, human, full length; also called SMAR1; source: E. coli Rosetta (DE3), purified (nickel column, HiTrap Q, gel filtration)
stoichiometry N [5]: 4
